Assay [1] concerns the target T1, Akt1 (Homo sapiens, UniProt P31749). Put plainly: GST-FAK truncation/mutant fusion protein pull-down of Akt1 (cell lysate or purified Akt1). The arrangement: endogenous in cells; host or cells: Caco-2 or SW620 cell lysate. The settings on record: for Akt1 pulled down by GST-FAK truncations: GST pull-down, N=4, p<0.05. The assay is classed as binding. As to the method: (§1) Glutathione-Sepharose 4B beads (15 μl) were washed twice in ice-cold PBS and resuspended in 400 μl PBS. Bacterial lysate containing GST-Akt1, GST-FAK-NT1 (truncations), or GST proteins (gift of Dr. J. Chen) were then added in excess and incubated with the beads for 1 h. Glutathione-Sepharose 4B beads coupled to GST-Akt1, GST-FAK (truncations), or GST were then washed twice with PBS by centrifuge for 5 min at 500 g and incubated with nontransfected or transfected Caco-2 cell lysates (600-800 μg protein) overnight at 4° C. Transfected Caco-2 cells received plasmids encoding HA-WT-FAK or HA-FRNK. Nontransfected and transfected Caco-2 cell lysates were prepared in cell lysis buffer lysis buffer [50 mM Tris (pH 7.4), 150 mM NaCl, 1% Triton X-100, 1% sodium deoxycholate, 0.1% SDS, 1 mM EDTA, 1 mM phenylmethylsulfonyl fluoride, 1 mM Na3VO4, 50 mM NaF, 10 mM sodium pyrophosphate, […] (pH 7.4)]. Following incubation, beads were washed twice with lysis buffer without SDS and protease inhibitors. Proteins were eluted with Laemmli SDS sample dilution buffer, separated by 10% SDS-PAGE, and immunoblotted with GST, Akt1 (Cell Signaling Technology, Danvers, Mass.), or HA monoclonal antibodies (Covance, Chantilly, Va.).
In some cases Glutathione-Sepharose-4B beads (30 μl) (GE Healthcare Life Science, Pittsburgh, Pa.) were conjugated with GST (expressed protein from a 250 μl bacterial pellet per 30 μl of beads) or recombinant GST-tagged (expressed protein from a 3 ml bacterial pellet per 30 μl of beads) (24) and incubated with lysate from 2×10^7 Caco-2 or SW620 cells (1500 μg protein) or purified Akt1 (0.35 μg) (Origene, Rockville, Md.) overnight at 4° C. […]
Protein concentrations were determined by bicinchoninic acid (BCA) protein assay (Pierce, Rockford, Ill.). […] Membranes were visualized by the infrared fluorescent IRDye system (LI-COR Biosciences, Lincoln, Nebr.) and analyzed on an Odyssey scanner (LI-COR Biosciences, Lincoln, Nebr.) within the linear range. […]

In assay [2] the target is T1, Akt1. The assay can be described thus: GST-Akt1 pull-down of HA-tagged wild type FAK or FRNK from transfected Caco-2 cell lysate. The assay is classed as binding. On the set-up: made in house; host or cells: bacteria (pGEX-4T1; E. coli BL21 is printed only for the GST-FAK fusions). The settings on record: lysate of transiently transfected Caco-2 cells; 1 of 2 similar experiments. Here is the method:
as §1, with “Va.). […]” for “Va.).”

T1 sequence (P31749 whole entry, the tested form may be a part): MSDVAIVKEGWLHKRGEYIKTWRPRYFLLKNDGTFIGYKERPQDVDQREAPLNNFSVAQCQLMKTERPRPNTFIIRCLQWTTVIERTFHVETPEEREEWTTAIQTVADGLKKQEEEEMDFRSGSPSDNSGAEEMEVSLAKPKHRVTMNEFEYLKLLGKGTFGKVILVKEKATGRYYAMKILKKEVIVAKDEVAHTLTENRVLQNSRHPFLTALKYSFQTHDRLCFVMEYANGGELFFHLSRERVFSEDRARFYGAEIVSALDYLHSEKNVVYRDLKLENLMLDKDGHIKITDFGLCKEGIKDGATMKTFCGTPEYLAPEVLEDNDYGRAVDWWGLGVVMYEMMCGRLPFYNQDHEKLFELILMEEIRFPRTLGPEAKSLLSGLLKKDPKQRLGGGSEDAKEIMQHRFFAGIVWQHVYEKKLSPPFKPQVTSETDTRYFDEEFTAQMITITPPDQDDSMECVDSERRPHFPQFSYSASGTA

B1: NT1: recombinant GST-FAK truncated peptide, FAK residues 1-126 (SEQ ID NO:3) (protein)
chain: MAAAYLDPNLNHTPNSSTKTHLGTGMERSPGAMERVLKVFHYFESNSEPTTWASIIRHGDATDVRGIIQKIVDSHKVKNVACYGFRLSHLRSEEVHWLHVDMGVSSVREKYELAHPPEEWKYELRI
modifications: left off: large carriers
Consider B1, for which the “Akt1 pulled down by GST-FAK truncations” value in the assay with Akt1 [1] is on record as “significantly more Akt1”. The “Akt1 pulled down by GST-FAK-NT1-conjugated Sepharose beads” value with Akt1 [1] (overnight incubation with either cell lysate or purified Akt1) is recorded as “pulled down Akt1”.

B2: NT1-2: recombinant GST-FAK truncated peptide, residues 61-126 (protein, listed as Homo sapiens)
chain: ATDVRGIIQKIVDSHKVKNVACYGFRLSHLRSEEVHWLHVDMGVSSVREKYELAHPPEEWKYELRI
modifications: GST tag
For the molecule B2, the “Akt1 pulled down by GST-FAK truncations” value in the assay with Akt1 [1] is given as “significantly more Akt1”.

B3: HA-conjugated wild type FAK: HA-tagged wild type FAK expressed in Caco-2 cells (protein)
chain: MAAAYLDPNLNHTPNSSTKTHLGTGMERSPGAMERVLKVFHYFESNSEPTTWASIIRHGDATDVRGIIQKIVDSHKVKHVACYGFRLSHLRSEEVHWLHVDMGVSSVREKYELAHPPEEWKYELRIRYLPKGFLNQFTEDKPTLNFFYQQVKSDYMLEIADQVDQEIALKLGCLEIRRSYWEMRGNALEKKSNYEVLEKDVGLKRFFPKSLLDSVKAKTLRKLIQQTFRQFANLNREESILKFFEILSPVYRFDKECFKCALGSSWIISVELAIGPEEGISYLTDKGCNPTHLADFTQVQTIQYSNSEDKDRKGMLQLKIAGAPEPLTVTAPSLTIAENMADLIDGYCRLVNGTSQSFIIRPQKEGERALPSIPKLANSEKQGMRTHAVSVSETDDYAEIIDEEDTYTMPSTRDYEIQRERIELGRCIGEGQFGDVHQGIYMSPENPALAVAIKTCKNCTSDSVREKFLQEALTMRQFDHPHIVKLIGVITENPVWIIMELCTLGELRSFLQVRKYSLDLASLILYAYQLSTALAYLESKRFVHRDIAARNVLVSSNDCVKLGDFGLSRYMEDSTYYKASKGKLPIKWMAPESINFRRFTSASDVWMFGVCMWEILMHGVKPFQGVKNNDVIGRIENGERLPMPPNCPPTLYSLMTKCWAYDPSRRPRFTELKAQLSTILEEEKAQQEERMRMESRRQATVSWDSGGSDEAPPKPSRPGYPSPRSSEGFYPSPQHMVQTNHYQVSGYPGSHGITAMAGSIYPGQASLLDQTDSWNHRPQEIAMWQPNVEDSTVLDLRGIGQVLPTHLMEERLIRQQQEMEEDQRWLEKEERFLKPDVRLSRGSIDREDGSLQGPIGNQHIYQPVGKPDPAAPPKKPPRPGAPGHLGSLASLSSPADSYNEGVKLQPQEISPPPTANLDRSNDKVYENVTGLVKAVIEMSSKIQPAPPEEYVPMVKEVGLALRTLLATVDETIPLLPASTHREIEMAQKLLNSDLGELINKMKLAQQYVMTSLQQEYKKQMLTAAHALAVDAKNLLDVIDQARLKMLGQTRPH
modifications: left off: small tags and cut ends
notes: HA-tagged wild type FAK expressed in Caco-2 cells
On to B3, for which the “HA-tagged protein in eluate after passage over GST-Akt1 beads (Western blot for HA)” value in the assay with Akt1 [2] was “enriched”.

B4: HA-conjugated FRNK: HA-tagged FAK-related non-kinase, 67 kDa segment from the COOH-terminal region of FAK (protein)
chain: MESRRQATVSWDSGGSDEAPPKPSRPGYPSPRSSEGFYPSPQHMVQTNHYQVSGYPGSHGITAMAGSIYPGQASLLDQTDSWNHRPQEIAMWQPNVEDSTVLDLRGIGQVLPTHLMEERLIRQQQEMEEDQRWLEKEERFLKPDVRLSRGSIDREDGSLQGPIGNQHIYQPVGKPDPAAPPKKPPRPGAPGHLGSLASLSSPADSYNEGVKLQPQEISPPPTANLDRSNDKVYENVTGLVKAVIEMSSKIQPAPPEEYVPMVKEVGLALRTLLATVDETIPLLPASTHREIEMAQKLLNSDLGELINKMKLAQQYVMTSLQQEYKKQMLTAAHALAVDAKNLLDVIDQARLKMLGQTRPH
modifications: left off: small tags and cut ends
notes: HA-tagged FAK-related non-kinase, 67 kDa segment from the COOH-terminal region of FAK
For the molecule B4, the “HA-tagged protein in eluate after passage over GST-Akt1 beads (Western blot for HA)” value with Akt1 [2] is reported as “markedly reduced”.

For the origin of these results see US11452764B2, “Inhibiting FAK-AKT interaction to inhibit metastasis” (Board of Trustees of Michigan State University, priority 2017, dated 2022).
